Results: the RNAGym collection of RNA variant scans (doi:10.1073/pnas.2313332121)

B1: TPR t1 (parent)
chain: GACCAAUCUGCCCUCAGAGCUCGAGAACAUCUUCGGAUGCAGAGGAGGCAGGCUUCGGUGGCGCGAUAGCGCCAACGUCCUCAACCUCCAAUGCAUCCCACCACAUGAUGAUGCCUGAAGAGCCUUGGUUUUUUG

Variants of: B1
Test: polymerase ribozyme fitness, log enrichment relative to wild type (log ratio); higher = more active; in vitro selection for triplet polymerase activity
In short: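 Mutant libraries of both subunits of a heterodimeric triplet polymerase ribozyme were PCR-built, transcribed, and selected once in triplicate, with frozen incubation at −7 °C and capture of gel-excised extended constructs on streptavidin beads before RT-PCR. Illumina sequencing of input and output libraries was filtered to genotypes with ≥10 input reads and ≥1 read per output. Fitness is the logarithm of genotype enrichment over wild-type enrichment, using inverse-variance-weighted replicate averages. The logarithm is base 2.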

Row | Variant | polymerase ribozyme fitness (log ratio)
1 | U9A C49G G93C G120A U131A | 0.443
2 | U9A C53U C72U U92A G127A | -3.85
3 | U9A C56A C82A C85A | -0.979
4 | U9A C56G | -0.125
5 | U9A C62G C79G | -4.02
6 | U9A C70U | 0.25
7 | U9A C72U C123G U134G | 2.67
8 | U9A C72U G110C U130A | -4.28
9 | U9A C73A C104U U130G G135C | 0.682
10 | U9A C73U G117A | 0.559
11 | U9A C79A G93U C101A | -2.59
12 | U9A C85A C97U G117C C124A | -3.01
13 | U9A C97G A105G C115U G117A | -7.76
14 | U9A C99A | -6.7
15 | U9A C114A | 0.123
16 | U9A C115G | 1.95
17 | U9A G10A C40A U78C G110U C123U | -2.19
18 | U9A G17A G113A | -3.11
19 | U9A G19A G52U A105C A111G G120A | -5.2
20 | U9A G19C A41U | -1.63
21 | U9A G19U A46U C56G U133G | -4.95
22 | U9A G35A | -3.25
23 | U9A G36A | 0.00915
24 | U9A G36U G120U | 1.67

Row | Variant | polymerase ribozyme fitness (log ratio)
25 | U9A G39A C56A G60A | 0.000466
26 | U9A G39C C99U | -2.83
27 | U9A G39C G61C U78A U87G G110U | -2
28 | U9A G42A C70U U129A | -4.53
29 | U9A G47U C97G C99U G120U U130C | -5.08
30 | U9A G48C G77A C88U U112A | 0.603
31 | U9A G58C G71A U112A G113C G128U | -3
32 | U9A G61U C85U G117U | 0.0255
33 | U9A G61U C89U U92A U129A | -3.6
34 | U9A G63U | -0.179
35 | U9A G71U U87A C89A U112G | -5.05
36 | U9A G110U C124G | -0.636
37 | U9A U14A C64U | 0.0854
38 | U9A U14G A41C G42U G60U | -0.928
39 | U9A U21G A41U G45A | -4.48
40 | U9A U30C G44A G57U G60A | -4.18
41 | U9A U32A A37U A46C C56A C79A A111G | -7.29
42 | U9A U33A G36U C89G C124A | -5.28
43 | U9A U55A C56A G63U | -5.03
44 | U9A U78C U96A C124U | 1.26
45 | U9C A16G G57C G110C | -4.22
46 | U9C A16U C72G C88A A95C A111U | -6.59
47 | U9C A27C C40G C72A | -3.22
48 | U9C A29U G61A C88U C102U | -4.47

Row | Variant | polymerase ribozyme fitness (log ratio)
49 | U9C A43U | -0.741
50 | U9C A43U C73U C79U A111G | -0.526
51 | U9C A90G C115U U131C | 1.24
52 | U9C A103C C104A | -2.12
53 | U9C C11U G17A | -3.22
54 | U9C C11U G17C A41U | -4.76
55 | U9C C11U G61A C88G | -0.498
56 | U9C C12A C86A C102A C104U C124A | -0.301
57 | U9C C12G G60C U78C | -1.6
58 | U9C C12U U81A C89A | -1.67
59 | U9C C13G C28G G45U G61A | -2.49
60 | U9C C13U C53A U87C A100U | -0.242
61 | U9C C15A G44U G60C A91U A121G | -1.08
62 | U9C C15A G45C G57C U59A G120A | 0.743
63 | U9C C20A G69C C101A | -6.63
64 | U9C C22U A46C A103G G113C | -7.29
65 | U9C C31G U92A G93C C114A | -5.25
66 | U9C C49A C62U C123U | 1.78
67 | U9C C53A C123G | 1.78
68 | U9C C53G C114U U116A C123A U130C | -7.66
69 | U9C C53U A83C | 0.688
70 | U9C C56A | -0.0544
71 | U9C C56A A95C U116A | -2.12
72 | U9C C56G | 0.559

Row | Variant | polymerase ribozyme fitness (log ratio)
73 | U9C C56G G60A C88G | -3.64
74 | U9C C56U A83U G117A | 0.635
75 | U9C C70U G93A | 0.136
76 | U9C C72G | 0.104
77 | U9C C72U | 0.343
78 | U9C C72U U78C A83U A90G A121G | 2.19
79 | U9C C80G | -5.3
80 | U9C C114A U129C | -1.92
81 | U9C G10A A37U | -0.108
82 | U9C G17A A18G G69U G113U | -4.32
83 | U9C G17U U32C C49U C72U A105G | -5.59
84 | U9C G19A | -1.95
85 | U9C G19C | -2.29
86 | U9C G25A | -6.01
87 | U9C G42U C53G C56A C73A C88U | -1.43
88 | U9C G44A C79U C86U G120A | 0.952
89 | U9C G48C C101A G117A | -1.58
90 | U9C G48U G52C C94U | -2.36
91 | U9C G51C U81G U92C | -5.89
92 | U9C G57U | 0.0681
93 | U9C G60U A105U A119G | -1.05
94 | U9C G60U C99A | -6.14
95 | U9C G60U U109G C114G | -3.95
96 | U9C G63A | 0.19

Row | Variant | polymerase ribozyme fitness (log ratio)
97 | U9C G69U A100U U112A C123U | 2.09
98 | U9C G71U U78G U132A | -0.414
99 | U9C U59C A84U C104A C114U | -4.8
100 | U9C U67C C82G U109C | -6.64
101 | U9C U78C | 0.403
102 | U9C U92A C114A | -1.69
103 | U9C U96A | 0.079
104 | U9G A16U C82U C88U A95U U130G | -0.874
105 | U9G A18C C56G C72A | -3.47
106 | U9G A18C C56G G120A U130A | -1.19
107 | U9G A18C G117C | 0.268
108 | U9G A26U C72U | -2.22
109 | U9G A27U G39U A46U | -4
110 | U9G A27U U133G | -2.53
111 | U9G A37C C40U C72U C123A | -0.161
112 | U9G A41U U54A U78C | -1.59
113 | U9G A46C G61A U87A G93C C115A U116C A119C | -3.51
114 | U9G A46U A91C G117A | -1.93
115 | U9G A50U A74C G113C | -3.6
116 | U9G A66U C80A C85U | -5.32
117 | U9G A111U A118U G120A | -2.78
118 | U9G C11A G52A G57C U116G A121G | 0.971
119 | U9G C11G C94U | -4.64
120 | U9G C12G | 0.483

Row | Variant | polymerase ribozyme fitness (log ratio)
121 | U9G C12G C28G C40A C85A A90C C104A G110C | -4.42
122 | U9G C12G G36A C101G | -1.32
123 | U9G C13A G48C C56A C72A U78A | -1.24
124 | U9G C13A U59A C72A | -1.53
125 | U9G C13G | 0.0659
126 | U9G C13U G17U U87C | -0.186
127 | U9G C22U U54G C104U | -4.59
128 | U9G C28U C56A C114U A118U U125G U132A | -5.4
129 | U9G C31U | -4.02
130 | U9G C31U C94G | -6.42
131 | U9G C34A | -1.59
132 | U9G C34A G120C | -0.929
133 | U9G C34G | -4.16
134 | U9G C34U | -3.92
135 | U9G C40A U54G U81G C85A C123G | -5.22
136 | U9G C40G G110U C123G | -4.98
137 | U9G C40U G45U U129C G135A | -3.12
138 | U9G C53U G61C C124G U131A | 1.49
139 | U9G C53U G107C | -5.76
140 | U9G C56G G61A | -2.17
141 | U9G C56U G61U | -4.53
142 | U9G C62G G120C | 0.877
143 | U9G C62U | -0.19
144 | U9G C70A C76U | -3.45

Row | Variant | polymerase ribozyme fitness (log ratio)
145 | U9G C70A G71A G127C | -4.46
146 | U9G C72A | -0.48
147 | U9G C80A U87C C114U | -4.36
148 | U9G C85U | -0.222
149 | U9G C89U | 0.304
150 | U9G C97A | -4.53
151 | U9G C99A | -5.82
152 | U9G C104U | 0.944
153 | U9G C115G | 1.35
154 | U9G C123G | 1.31
155 | U9G C123U | 0.831
156 | U9G C124A U131G | 1.79
157 | U9G G10A U14G A46G G48A A66G | -2.94
158 | U9G G10C C11A C15A A37G U78C C85U A95U C123U | -3.97
159 | U9G G10C C11A C89U A103U U109A | -5.83
160 | U9G G10C C94G A121C C124G | 1.48
161 | U9G G17A A18U A46U A84G U87A U112C G127C U134A | -2.66
162 | U9G G36A C101G A121U | -0.24
163 | U9G G36U G57U C62U | -1.11
164 | U9G G36U G60C A68G U78A C88A | -6.1
165 | U9G G39A A121U U131C | 2.2
166 | U9G G39A C56U | 0.0691
167 | U9G G39C G42U C64U | -2
